Test results reported in patent publication US20120324600A1, “CONSTITUTIVE SYNTHETIC PLANT PROMOTERS AND METHODS OF USE” (SYNGENTA PARTICIPATIONS AG, priority 2010, published 2012).

B1: SEQ ID NO: 3: synthetic plant promoter, subelements eFMV, e35S, pr35SCMP, eTMV; 625 bp (nucleic acid)
DNA: AGCTGCTTGTGGGGACCAGACAAAAAAGGAATGGTGCAGAATTGTTAGGCGCACCTACCAAAAGCATCTTTGCCTTTATTGCAAAGATAAAGCAGATTCCTCTAGTACAAGTGGGGAACAAAATAACGTGGAAAAGAGCTGTCCTGACAGCCCACTCACTAATGCGTATGACGAACGCAGTGACGACCACAAAACTCGAGACTTTTCAACAAAGGGTAATATCCGGAAACCTCCTCGGATTCCATTGCCCAGCTATCTGTCACTTTATTGTGAAGATAGTGGAAAAGGAAGGTGGCTCCTACAAATGCCATCATTGCGATAAAGGAAAGGCTATCGTTGAAGATGCCTCTGCCGACAGTGGTCCCAAAGATGGACCCCCACCCACGAGGAGCATCGTGGAAAAAGAAGACGTTCCAACCACGTCTTCAAAGCAAGTGGATTGATGTGATATCTCCACTGACGTAAGGGATGACGAACAATCCCACTATCCTTCTGCAGGTCGACTCTAGAGGATCCTATAAATAGGAAGTTCATTTCATTTGGAGAGGAAACCTCGAGTATTTTTACAACAATTACCAACAACAACAAACAACAAACAACATTACAATTACTATTTACAATTACA
modifications: synthetic plant promoter
notes: synthetic plant promoter, subelements eFMV, e35S, pr35SCMP, eTMV; 625 bp
B2: SEQ ID NO: 5: synthetic plant promoter, subelements eFMV, e35S, iUBQ3, pr35SCMP, eTMV; 1017 bp (nucleic acid)
DNA: AGCTGCTTGTGGGGACCAGACAAAAAAGGAATGGTGCAGAATTGTTAGGCGCACCTACCAAAAGCATCTTTGCCTTTATTGCAAAGATAAAGCAGATTCCTCTAGTACAAGTGGGGAACAAAATAACGTGGAAAAGAGCTGTCCTGACAGCCCACTCACTAATGCGTATGACGAACGCAGTGACGACCACAAAACTCGAGACTTTTCAACAAAGGGTAATATCCGGAAACCTCCTCGGATTCCATTGCCCAGCTATCTGTCACTTTATTGTGAAGATAGTGGAAAAGGAAGGTGGCTCCTACAAATGCCATCATTGCGATAAAGGAAAGGCTATCGTTGAAGATGCCTCTGCCGACAGTGGTCCCAAAGATGGACCCCCACCCACGAGGAGCATCGTGGAAAAAGAAGACGTTCCAACCACGTCTTCAAAGCAAGTGGATTGATGTGATATCTCCACTGACGTAAGGGATGACGAACAATCCCACTATCCTTCTGCAGGTCGACTCTAGAGGATCTTATAAATAGGTATATTTTCTGATTCTTTTTGTTTTTGATTCGTATCTGATCTCCAATTTTTGTTATGTGGATTATTGAATCTTTTGTATAAATTGCTTTTGACAATATTGTTCGTTTCGTCAATCCAGCTTCTAAATTTTGTCCTGATTACTAAGATATCGATTCGTAGTGTTTACATCTGTGTAATTTCTTGCTTGATTGTGAAATTAGGATTTTCAAGGACGATCTATTCAATTTTTGTGTTTTCTTTGTTCGATTCTCTCTGTTTTAGGTTTCTTATGTTTAGATCCGTTTCTCTTTGGTGTTGTTTTGATTTCTCTTACGGCTTTTGATTTGGTATATGTTCGCTGATTGGTTTCTACTTGTTCTATTGTTTTATTTCAGGTGGATCCTATAAATAGGAAGTTCATTTCATTTGGAGAGGAAACCTCGAGTATTTTTACAACAATTACCAACAACAACAAACAACAAACAACATTACAATTACTATTTACAATTACA
modifications: synthetic plant promoter
notes: synthetic plant promoter, subelements eFMV, e35S, iUBQ3, pr35SCMP, eTMV; 1017 bp

What was measured:
Format in all cases: in vivo
maize = test: expression of a heterologous sequence in maize
From the text: A similar strategy for building synthetic plant promoters for use in maize was implemented.

[1] = tested on: transgenic soybean events; test: tolerance to mesotrione herbicide spray of T1 transgenic soybean seedlings; conditions: sprayed at V2 stage, rated approximately 10 days post-application
From the text: (§1) The first generation transgenic soybean events (T1) harboring SEQ ID NO: 3, SEQ ID NO: 4, SEQ ID NO: 5, SEQ ID NO: 6, or SEQ ID NO: 7 were characterized for segregation analysis, oat HPPD protein expression and tolerance to mesotrione herbicide spray. The green leaf tissues from the first trifoliate of five independent events were sampled to determine the segregation ratios (homozygous, heterozygous or null) of the individual seedlings as determined by zygosity Taqman® assays and oat HPPD protein expression by ELISA. At the V2 stage, the seedlings were sprayed with the HPPD inhibiting herbicide mesotrione and tolerance rating determined approximately 10 days post-application.

[2] = tested on: oat HPPD protein expression; test: oat HPPD protein expression by ELISA in T1 transgenic soybean events; conditions: inferred from ELISA and mesotrione tolerance of HOM vs HET siblings
From the text: To express a synthetic oat (Avena sativa) 4-hydroxyphenylpyruvate dioxygenase (cAvHPPD) in stably transformed soybean, viral transcriptional and translational enhancers, and a minimal promoter were created by PCR or direct DNA synthesis and combined by standard DNA restriction digestion and ligation reactions. A synthetic plant promoter comprising defined components eFMV (SEQ ID NO: 1), eTMV (SEQ ID NO: 2), the Cauliflower Mosaic Virus 35S enhancer region (e35S) and a minimal promoter (pr35SCMP: Cestrum Yellow Leaf Curl virus TATA-box motif; no CAAT 35S-proximal promoter sequence) were combined to create SEQ ID NO: 3. Subsequently, SEQ ID NO: 3 was modified by digestion with a DNA restriction enzyme XhoI to remove defined components e35S, pr35SCMP (including the TATA-box motif) followed by a standard ligation reaction to create SEQ ID NO: 4. […] One skilled in the art would readily recognize other subelements which would be suitable to use.
The plasmids containing the synthetic plant promoter expression cassettes were transformed into soybean using Agrobacterium tumefaciens. […] Expression of cAvHPPD of surviving T0 plants was quantified by ELISA (Engvall E, Perlman P (1971). “Enzyme-linked immunosorbent assay (ELISA). Quantitative assay of immunoglobulin G”. Immunochemistry 8(9):871-874).
as §1

| Molecule | promotion of expression of a heterologous sequence in maize (maize) | tolerance to mesotrione herbicide spray [1] | transgene silencing in HOM plants [2] |
| --- | --- | --- | --- |
| B1 | successfully used to promote the expression of a heterologous sequence in maize | significant initial damage to the homozygous (HOM) compared to the heterozygous (HET) siblings | indicative of transgene silencing |
| B2 |  | improved tolerance to the HPPD inhibitor herbicide mesotrione | relieve transgene silencing |
